# Test results published in patent US20040265809A1 (published 2004).
# Target: T1, rat RORβ ligand-binding domain (RORβ-LBD), residues 201-452, polyhistidine-tagged (rat, UniProt P45446 212-463)
# T1 construct: Expressed in E. coli; The ligand pocket holds stearic acid (first crystal) or all-trans retinoic acid (second crystal); One monomer per asymmetric unit; also called rRORβ-LBD; RORbeta LBD; not shown: N-terminal polyhistidine tag and thrombin cleavage site from the pet15b vector (Novagen); the tagge
# T1 sequence: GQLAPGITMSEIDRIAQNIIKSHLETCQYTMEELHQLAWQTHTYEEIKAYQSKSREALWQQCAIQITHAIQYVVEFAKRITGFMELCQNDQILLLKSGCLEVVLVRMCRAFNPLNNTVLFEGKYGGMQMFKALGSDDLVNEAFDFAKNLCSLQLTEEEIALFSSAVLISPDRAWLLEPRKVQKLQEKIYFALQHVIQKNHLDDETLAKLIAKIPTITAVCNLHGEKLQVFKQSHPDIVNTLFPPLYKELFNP
# Test: co-crystallisation, hanging drop, stearate complex
# Protocol: The RORβ-LBD stearate complex was crystallized at 22° C. by vapor diffusion in the hanging-drop mode. In the crystallisation trials, the protein was used without further purification and co-crystallized with a 3-molar excess of SRC-1⁶⁸⁶⁻⁷⁰⁰([…]) NR-interacting peptide co-activator sequence. Addition of the peptide was crucial to obtain crystals. In the initial trial to obtain crystallization conditions, a sparse matrix crystallization screen was done with a home screen. For each crystallization trial, a 4 μl drop was prepared by mixing 2 μl of purified protein (5.8 mg/ml) with an equal volume of reservoir solution. The reservoir contained 500 μl of the precipitating solution. A crystal measuring […] at 22° C. in PEG 6000 15% and 100 mM Tris HCl at pH=8.0 grew within about 2 weeks. This crystal was used in a first data collection run (as described below).
binder,measurement,value
RHKILHRLLQEGSPS (also called SRC1 peptide) [SRC-1 686-700 NR-interacting co-activator peptide],binding result,binds
